Measured values as given in patent publication CN111434683A.
“And” between values parts separate entries of the source, which are not always exact repeats. Equal entries are not always repeated.

How the values were obtained:
[1] = molecular target: H7N9病毒的HA蛋白(购自ACROBiosystems) (H7N9 influenza virus); experiment: ELISA, negative control on coated HA
[2] = molecular target: H7N9病毒 A/Anhui/1/2013 (H7N9 influenza virus A/Anhui/1/2013); experiment: cell-based or functional assay
[3] = molecular target: H7N9病毒的HA蛋白(购自ACROBiosystems) (H7N9 influenza virus); experiment: ELISA, supernatant of transfected 293F cells on coated HA
[4] = molecular target: H7N9病毒的HA蛋白(购自ACROBiosystems) (H7N9 influenza virus)

Molecule | 450nm [1] | IC50 (微量中和-ELISA, MDCK细胞) [2] [µg/mL] | 450nm [3] | Kd [4] [nM]
阴性对照 | 0.0675 OD450 and 0.0554 OD450 |  |  | 
抗H7N9全人源单克隆抗体8D11 (antibody, V domains shown) VH: QVQLVESGAEVKKPGASVKVSCKASGYIFFTSYDINWVRQATGQGLEWMGWMNPDSGDTGFAQKFQGRVTMTRNTSITTAYMELSSLTSEDTAVYYCATGNADCSGGSCYNWFDPWGQGTLVTVSS VL: SSELTQDPAVSVALGQTVRITCQGDRLRSYTYASWYQQKPGQAPVLVIYGKNNRPSGIPDRFSGSSSGNTASLTITGAQAEDEADYYCNSRTSGYHLVFGGGTKLTVLV |  | 0.89 | 0.956 OD450 and 0.981 OD450 and 0.742 OD450 | 8.3
